How the values were obtained:
[1] = molecular target: T1, CD123 on the surface of CD123-positive cells (KG-1a, MV-4-11) (human, UniProt P26951 19-378); assay: flow cytometry on MV-4-11 cells, titration from 100 nM, goat anti-human IgG-FITC; MV-4-11 cells, flow cytometry titration (apparent KD)
T1 construct: whole, on cells; Endogenous CD123 on KG-1a (human acute myeloid leukemia) and MV-4-11 (human acute monocytic leukemia) cells; also called cell surface CD123 antigen; CD123 on the surface of MV-4-11 cells
Description: (§1) MV-4-11 cells were plated in a 96-well V-bottom plate at 100 μL/well, and the supernatant was removed after centrifugation. […] The antibodies were added to the wells containing cells and incubated at 4° C. for 1 hour. Then, the plate was washed three times with 200 μL PBS buffer. The goat anti-human IgG-FITC secondary antibody (ZF-0308, ZSGB-BIO) was added to the wells (100 μL/well), and incubated at 4° C. for 30 minutes in the dark. Then, the cells were washed three times with 200 μL of PBS buffer, and resuspended in 100 μL of PBS buffer to detect FITC channel by flow cytometer (ACEA, Novocyte).

[2] = molecular target: T2, extracellular region of human CD123 subtype 1 with C-terminal His tag (hCD123-SP1-his) (human (Homo sapiens), UniProt P26951 19-305); assay: SPR, Biacore X100; antibody captured by anti-human IgG (Fc), hCD123-SP1-his as analyte, 1:1 model
T2 construct: Recombinant, expressed in HEK293 cells
T2 sequence: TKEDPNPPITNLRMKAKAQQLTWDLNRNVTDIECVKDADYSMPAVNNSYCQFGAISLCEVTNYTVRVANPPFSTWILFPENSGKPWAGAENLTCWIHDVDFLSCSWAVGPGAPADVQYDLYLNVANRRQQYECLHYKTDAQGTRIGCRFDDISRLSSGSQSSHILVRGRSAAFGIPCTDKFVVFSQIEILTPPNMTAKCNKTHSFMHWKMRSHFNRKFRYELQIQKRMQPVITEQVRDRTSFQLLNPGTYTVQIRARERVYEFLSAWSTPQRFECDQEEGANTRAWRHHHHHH
Description: (§2) The affinity of anti-CD123 antibodies was determined by surface plasmon resonance using Biacore X100. Related reagents and consumables such as Amino Conjugation Kit (BR-1000-50), Human Antibody Capture Kit (BR-1008-39), CM5 Chip (BR100012) and 10×HBS-EP (BR100669) buffer with pH 7.4 were all purchased from GE healthcare. According to the instructions in the kits, 1-Ethyl-3-(3-dimethylaminopropyl) carbodiimide hydrochloride (EDC) and N-Hydroxysuccinimide (NHS) was used to activate the surface of the carboxylated CM5 chip, and the anti-human IgG (Fc) antibody (capture antibody) was diluted to 25 μg/mL with 10 mM, pH5.0 sodium acetate, followed by an injection with a flow rate at 10 μL/min to achieve a coupling volume of approximately 10,000 response units (RU). Following the injection of the capture antibody, 1 M ethanolamine was injected to block unreacted groups. […] The chip surface was regenerated by injecting 3M MgCl₂ solution at 10 μL/min for 30 s. Association rates (Kₒₙ) and dissociation rates (Koff) were calculated from association and dissociation sensorgrams fitted by a 1:1 binding model using Biacore X100 evaluation software version 2.0.1. The dissociation equilibrium constant (KD) was calculated as the ratio Koff/Kₒₙ.

[3] = molecular target: T1, CD123 on the surface of CD123-positive …; assay: flow cytometry titration on MV-4-11 cells, goat anti-human IgG-FITC secondary antibody
Description: as §1, with “MV-4-11 cells at the logarithmic phase of growth were used and resuspended to 2×10⁶ […] with PBS buffer containing 1% BSA after centrifugation. MV-4-11” for “MV-4-11”

[4] = molecular target: T2, extracellular region of human CD123 …; assay: SPR, Biacore X100; antibody captured by anti-human IgG (Fc), hCD123-SP1-his as analyte, 1:1 model; remark: listed apart in the source
Description: as §2

[5] = molecular target: T2, extracellular region of human CD123 …; assay: phage display, solid-phase screening on hCD123-SP1-His, three rounds
[6] = molecular target: T3, extracellular region of human CD3E with C-terminal His tag (hCD3E-his) (human (Homo sapiens), UniProt P07766 23-126); assay: SPR, Biacore X100; antibody captured by anti-human IgG (Fc) on CM5, hCD3E-his as analyte, 1:1 model, 25 C
T3 construct: Recombinant, expressed in HEK293 cells
Description: (§3) The chip surface was regenerated by injecting 3M MgCl₂ solution at 10 μL/min for 30 s. Association rates (Kₒₙ) and dissociation rates (Koff) were calculated from association and dissociation sensorgrams fitted by a 1:1 binding model using Biacore X100 evaluation software version 2.0.1. The dissociation equilibrium constant (KD) was calculated as the ratio Koff/Kₒₙ.

[7] = molecular target: T4, extracellular region of cynomolgus monkey CD3E with C-terminal His tag (mfCD3E-his) (cynomolgus monkey (Macaca fascicularis), UniProt Q95LI5 22-117); assay: SPR, Biacore X100; antibody captured by anti-human IgG (Fc), mfCD3E-his as analyte, 1:1 model
T4 construct: Recombinant, expressed in HEK293 cells
T4 sequence: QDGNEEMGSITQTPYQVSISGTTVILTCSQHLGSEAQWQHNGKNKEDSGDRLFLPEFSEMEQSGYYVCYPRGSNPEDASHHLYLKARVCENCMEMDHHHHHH
Description: as §3

[8] = molecular target: T3, extracellular region of human CD3E with …; assay: SPR, Biacore X100; antibody captured by anti-human IgG (Fc), hCD3E-his as analyte, 1:1 model
Description: as §3

[9] = molecular target: T2, extracellular region of human CD123 …; assay: SPR, Biacore X100; antibody captured by anti-human IgG (Fc) on CM5, hCD123-SP1-his as analyte, 1:1 model, 25 C
Description: as §2

T3 sequence (P07766 other isoform, or with tags, fused parts or gaps limits assumed): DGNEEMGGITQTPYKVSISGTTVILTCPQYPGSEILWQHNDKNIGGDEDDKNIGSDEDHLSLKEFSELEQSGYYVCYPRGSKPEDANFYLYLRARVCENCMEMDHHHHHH

B1: anti-CD123 monoclonal antibody H7A3-h2-m5+L27E5 (antibody, V domains shown)
VH: QVQLVQSGAEVKKPGASVKVSCKASGYTFTSYDVSWVRQAPGQRLEWMGWVYPVDGSTKFNEKFKGRVTLTADRSSSTAYMELSSLRSEDTAVYYCARLTYGDFGDAMDYWGQGTLVTVSS
VL: DIVMTQTPLSLSVTPGQPASISCKSSQSLVHSNDNTYLTWYLQKPGQSPQLLIYKVSNRFSGVPDRFSGSGSGTDFTLKISRVEAEDVGVYYCGQGTQYPFTFGQGTKLEIK
notes: Expressed as a whole antibody of human IgG1 with the common light chain L27E5; also called H7A3 humanized version H7A3-h2-m5
- Kd [1]: 3.1 nM
- Kd [2]: 0.22 nM
- koff [2]: 5.14e-05 s⁻¹
- kon [2]: 234000 M⁻¹ s⁻¹
- EC50 (read off the curve) [3]: ~3 nM
- Kd [4]: 0.244 nM
- koff [4]: 7.67e-05 s⁻¹
- kon [4]: 314000 M⁻¹ s⁻¹

B2: anti-human CD123 single chain fragment variable S8F3 (scFv)
scFv: QVQLQQSGAELAKPGASVKISCKASGYTFTSYDVSWVKQRPGQGLEWIGWVYPVDGSTKFNEKFKGKATLTADRSSSTAYMQLTSLTSEDSAVYFCARLRYGNYGDAMDDWGQGTSVTVSAGGGGSGGGGSGGGGSDVVMTQTPVSLSVSLGDQVSISCRPSQSLVHNNGNTYLSWYLQKPGQSPHPLIYKVSNRFSGISDRFSGSGSGTDFTLKISRVEPDDLGVYYCGQGTQYPFTFGSGTKLEIK
- binding result [5]: binds

B3: monoclonal antibody WM03-C6 (antibody, V domains shown)
VH: EVQLVETGENLVQPGKSLRLTCATSGFSFSNAWMHWIRQSPEKQLEWVAQIKDKSNNYATYYAESVNGRFTISRDDSKSSIYLHMDNLKEEDSAIYYCRYVHYGVRFFYTMDVWGQGTSVTVSS
VL: DVVMTQTPVSLSVSLGDQVSISCRPSQSLVHNNGNTYLSWYLQKPGQSPHPLIYKVSNRFSGISDRFSGSGSGTDFTLKISRVEPDDLGVYYCGQGTQYPFTFGSGTKLEIK
notes: also called rat monoclonal antibody WM03-C6; 20E5-F10 of WO 2016/116626 A1
- Kd [6]: 10.6 nM
- koff [6]: 0.000288 s⁻¹
- kon [6]: 27200 M⁻¹ s⁻¹

B4: anti-CD3E monoclonal antibody H3B8+L27E5 (antibody, V domains shown)
VH: EVQLVESGGGLVQPGGSLRLSCAASGFTFSNAWMHWVRQAPGKGLEWVGQIKDKSNNYATYYADAVKGRFTISRDDSKNSLYLQMNSLKTEDTAVYYCRYVHYGVRFFYTMDVWGQGTTVTVSS
VL: DIVMTQTPLSLSVTPGQPASISCKSSQSLVHSNDNTYLTWYLQKPGQSPQLLIYKVSNRFSGVPDRFSGSGSGTDFTLKISRVEAEDVGVYYCGQGTQYPFTFGQGTKLEIK
notes: captured by an anti-human IgG (Fc) antibody in SPR; also called WM03-C6 humanized monoclonal antibody
- Kd [7]: 5.26 nM
- koff [7]: 0.000649 s⁻¹
- kon [7]: 123000 M⁻¹ s⁻¹
- Kd [8]: 12.7 nM
- koff [8]: 0.000711 s⁻¹
- kon [8]: 56100 M⁻¹ s⁻¹
- Kd [6]: 47.6 nM
- koff [6]: 0.000993 s⁻¹
- kon [6]: 20800 M⁻¹ s⁻¹

B5: S8F3VH+L27E5 (antibody, V domains shown)
VH: QVQLQQSGAELAKPGASVKISCKASGYTFTSYDVSWVKQRPGQGLEWIGWVYPVDGSTKFNEKFKGKATLTADRSSSTAYMQLTSLTSEDSAVYFCARLRYGNYGDAMDDWGQGTSVTVSA
VL: DIVMTQTPLSLSVTPGQPASISCKSSQSLVHSNDNTYLTWYLQKPGQSPQLLIYKVSNRFSGVPDRFSGSGSGTDFTLKISRVEAEDVGVYYCGQGTQYPFTFGQGTKLEIK
notes: built from the label (S8F3VH heavy chain variable region with the L27E5 light chain)
- Kd [2]: 3.32 nM
- koff [2]: 0.000146 s⁻¹
- kon [2]: 43800 M⁻¹ s⁻¹

B6: H7A3+L27E5 (antibody, V domains shown)
VH: QVQLQQSGAELAKPGASVKISCKASGYTFTSYDVSWVKQRPGQGLEWIGWVYPVDGSTKFNEKFKGKATLTADRSSSTAYMQLTSLTSEDSAVYFCARLTYGDFGDAMDYWGQGTSVTVSA
VL: DIVMTQTPLSLSVTPGQPASISCKSSQSLVHSNDNTYLTWYLQKPGQSPQLLIYKVSNRFSGVPDRFSGSGSGTDFTLKISRVEAEDVGVYYCGQGTQYPFTFGQGTKLEIK
notes: Whole antibody: H7A3 variable region fused to a human heavy chain constant region, combined with the L27E5 light chain; also called S8F3 heavy chain mutant H7A3
- Kd [2]: 0.246 nM
- koff [2]: 6.64e-05 s⁻¹
- kon [2]: 270000 M⁻¹ s⁻¹
- Kd [4]: 0.226 nM
- koff [4]: 6.89e-05 s⁻¹
- kon [4]: 305000 M⁻¹ s⁻¹

B7: S8F3VH+C6VK (antibody, V domains shown)
VH: QVQLQQSGAELAKPGASVKISCKASGYTFTSYDVSWVKQRPGQGLEWIGWVYPVDGSTKFNEKFKGKATLTADRSSSTAYMQLTSLTSEDSAVYFCARLRYGNYGDAMDDWGQGTSVTVSA
VL: DVVMTQTPVSLSVSLGDQVSISCRPSQSLVHNNGNTYLSWYLQKPGQSPHPLIYKVSNRFSGISDRFSGSGSGTDFTLKISRVEPDDLGVYYCGQGTQYPFTFGSGTKLEIK
notes: Whole antibody: variable regions fused to a human heavy chain constant region and a light chain constant region; also called recombinant anti-CD123 monoclonal antibody
- Kd [9]: 8.03 nM
- koff [9]: 0.00365 s⁻¹
- kon [9]: 455000 M⁻¹ s⁻¹

B8: control bispecific antibody Xmab14045 (bispecific antibody)
heavy: QVQLQQSGAEVKKPGASVKVSCKASGYTFTDYYMKWVKQSHGKSLEWMGDIIPSNGATFYNQKFKGKATLTVDRSTSTAYMELSSLRSEDTAVYYCARSHLLRASWFAYWGQGTLVTVSSASTKGPSVFPLAPSSKSTSGGTAALGCLVKDYFPEPVTVSWNSGALTSGVHTFPAVLQSSGLYSLSSVVTVPSSSLGTQTYICNVNHKPSDTKVDKKVEPKSCDKTHTCPPCPAPPVAGPSVFLFPPKPKDTLMISRTPEVTCVVVDVKHEDPEVKFNWYVDGVEVHNAKTKPREEEYNSTYRVVSVLTVLHQDWLNGKEYKCKVSNKALPAPIEKTISKAKGQPREPQVYTLPPSREEMTKNQVSLTCDVSGFYPSDIAVEWESDGQPENNYKTTPPVLDSDGSFFLYSKLTVDKSRWEQGDVFSCSVMHEALHNHYTQKSLSLSPGK
scFv: not shown
light: not shown
- Kd [7]: 0.935 nM
- Kd [8]: 0.65 nM
